For data set [1], the target named is T1, AcrIIA15 full-length (UniProt PDB:8JG9_3 1-171).
T1 sequence: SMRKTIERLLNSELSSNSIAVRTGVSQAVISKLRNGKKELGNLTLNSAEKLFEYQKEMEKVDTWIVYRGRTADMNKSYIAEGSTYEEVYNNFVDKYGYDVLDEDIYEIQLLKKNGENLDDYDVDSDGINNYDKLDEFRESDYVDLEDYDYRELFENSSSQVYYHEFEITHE
In words: SEC; no stable binding; Promoter EMSA: 20 mM Tris-HCl pH 7.5, 300 mM NaCl, on ice/4 C, 30 min; SaCas9 EMSA: 20 mM Tris pH 7.5, 200 mM NaCl, 10 mM EDTA, RT; SPR: 10 mM Na2HPO4, 2 mM KH2PO4, 0.3 M NaCl; SEC: 20 mM Tris pH 7.5, 300 mM NaCl. The settings on record: protein: recombinant; tags: C-terminal His6, or His6-Sumo removed by Ulp1; chain copies: 2; blunt.

Data set [2] deals with T2, SaCas9;AcrIIA15 full-length (Staphylococcus aureus;, UniProt J7RUA5;PDB:8JG9_3 1-1053;1-171, |).
T2 sequence 1: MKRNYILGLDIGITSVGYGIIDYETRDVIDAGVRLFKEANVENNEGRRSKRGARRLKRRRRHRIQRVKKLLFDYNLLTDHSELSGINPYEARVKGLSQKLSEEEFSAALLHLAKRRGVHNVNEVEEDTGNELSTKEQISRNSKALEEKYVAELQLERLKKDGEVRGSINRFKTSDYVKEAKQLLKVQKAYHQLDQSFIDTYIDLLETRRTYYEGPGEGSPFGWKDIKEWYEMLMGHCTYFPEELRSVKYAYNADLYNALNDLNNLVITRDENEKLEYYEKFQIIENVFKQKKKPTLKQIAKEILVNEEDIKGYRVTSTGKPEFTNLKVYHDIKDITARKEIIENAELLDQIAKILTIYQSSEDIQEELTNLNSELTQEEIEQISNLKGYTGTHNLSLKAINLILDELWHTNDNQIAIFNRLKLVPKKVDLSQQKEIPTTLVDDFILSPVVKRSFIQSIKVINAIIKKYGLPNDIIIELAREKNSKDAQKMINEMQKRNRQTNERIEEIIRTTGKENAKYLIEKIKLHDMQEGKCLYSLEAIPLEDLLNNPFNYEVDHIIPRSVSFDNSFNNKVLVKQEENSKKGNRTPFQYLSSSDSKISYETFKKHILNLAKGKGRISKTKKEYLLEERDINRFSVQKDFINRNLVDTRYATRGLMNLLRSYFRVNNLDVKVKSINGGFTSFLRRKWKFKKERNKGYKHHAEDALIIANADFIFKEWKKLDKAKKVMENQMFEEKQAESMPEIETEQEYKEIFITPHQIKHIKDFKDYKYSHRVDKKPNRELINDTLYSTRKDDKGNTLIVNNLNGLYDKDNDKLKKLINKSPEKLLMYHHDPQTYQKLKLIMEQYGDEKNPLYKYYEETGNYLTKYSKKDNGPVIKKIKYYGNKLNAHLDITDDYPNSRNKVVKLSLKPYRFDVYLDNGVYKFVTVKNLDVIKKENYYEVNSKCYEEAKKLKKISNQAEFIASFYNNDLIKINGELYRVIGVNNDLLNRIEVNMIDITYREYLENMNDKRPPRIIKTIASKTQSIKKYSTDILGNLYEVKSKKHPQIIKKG
T2 sequence 2: T1 sequence
In words: cryo-EM; with IR1 DNA; Promoter EMSA: 20 mM Tris-HCl pH 7.5, 300 mM NaCl, on ice/4 C, 30 min; SaCas9 EMSA: 20 mM Tris pH 7.5, 200 mM NaCl, 10 mM EDTA, RT; SPR: 10 mM Na2HPO4, 2 mM KH2PO4, 0.3 M NaCl; SEC: 20 mM Tris pH 7.5, 300 mM NaCl. To be noted: protein: recombinant;recombinant; tags: His6-Sumo removed by Ulp1;C-terminal His6, or His6-Sumo removed by Ulp1; chain copies: 2;2; hairpin.

In the next data set the target is T3, SaCas9;AcrIIA15 CTD (Staphylococcus aureus;, UniProt J7RUA5;PDB:8JFT_3 1-1053;1-114, |).
T3 sequence 1: T2 sequence 1
T3 sequence 2: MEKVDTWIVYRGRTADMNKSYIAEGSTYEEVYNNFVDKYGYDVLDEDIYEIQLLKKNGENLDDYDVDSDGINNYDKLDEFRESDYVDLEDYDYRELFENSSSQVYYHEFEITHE
In words: cryo-EM; Promoter EMSA: 20 mM Tris-HCl pH 7.5, 300 mM NaCl, on ice/4 C, 30 min; SaCas9 EMSA: 20 mM Tris pH 7.5, 200 mM NaCl, 10 mM EDTA, RT; SPR: 10 mM Na2HPO4, 2 mM KH2PO4, 0.3 M NaCl; SEC: 20 mM Tris pH 7.5, 300 mM NaCl. The settings on record: protein: recombinant;recombinant; tags: His6-Sumo removed by Ulp1;C-His6 or His6-Sumo (removed); copies: 1;1; hairpin. A general note: In EMSA bound probe runs differently from free probe, usually more slowly.

For another data set, the target named is T4, AcrIIA15 CTD (UniProt PDB:8JFT_3 1-114).
T4 sequence: T3 sequence 2
In words: EMSA; Promoter EMSA: 20 mM Tris-HCl pH 7.5, 300 mM NaCl, on ice/4 C, 30 min; SaCas9 EMSA: 20 mM Tris pH 7.5, 200 mM NaCl, 10 mM EDTA, RT; SPR: 10 mM Na2HPO4, 2 mM KH2PO4, 0.3 M NaCl; SEC: 20 mM Tris pH 7.5, 300 mM NaCl. The settings on record: protein: recombinant; tags: C-His6 or His6-Sumo (removed); blunt.

Data set [3] addresses T1, AcrIIA15 full-length. The data set is described as above. The settings on record: protein: recombinant; tags: C-terminal His6, or His6-Sumo removed by Ulp1; chain copies: 2; blunt.
The target in another data set is T5, AcrIIA15 NTD (UniProt PDB:8JFR_1 1-63).
T5 sequence: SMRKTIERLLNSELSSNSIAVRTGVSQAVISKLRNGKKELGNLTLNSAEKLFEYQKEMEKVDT
Described as above. The settings on record: protein: recombinant; tags: C-His6 or His6-Sumo (removed); chain copies: 2; blunt.

B1: IR1' (dsDNA)
DNA 1: TTATGACAAATGTCATAG
DNA 2: CTATGACATTTGTCATAA
Regarding B1, in the data set with AcrIIA15 full-length [1], the binding result was “no binding”.

B2: SaCas9 sgRNA (structured_RNA)
RNA: GGUCUGCUAUUUCUAUUUACGUUUUAGUACUCUGGAAACAGAAUCUACUAAAACAAGGCAAAAUGCCGUGUUUAUCUCGUCAACUUGUUGGCGAGAUC
In the case of B2, the binding result (in data set [2]; with SaCas9;AcrIIA15 CTD) was “binds” each time.

B3: IR1-IR2 (dsDNA)
DNA 1: ATAATTATGACAAATGTCATAGAAAAGCGTTGACTTATGACGAACGTCATAATATA
DNA 2: TATATTATGACGTTCGTCATAAGTCAACGCTTTTCTATGACATTTGTCATAATTAT
As for B3, the binding result is recorded as “no binding” with AcrIIA15 CTD, “binds” in the data set with AcrIIA15 full-length [3] and “binds” with AcrIIA15 NTD.

The values above are taken from publication PMC10901769, “An anti-CRISPR that represses its own transcription while blocking Cas9-target DNA binding”.
